This is an account of results in patent US20140287471A1, “VARIANT CBH I POLYPEPTIDES WITH REDUCED PRODUCT INHIBITION” (BP CORPORATION NORTN AMERICA INC., priority 2011, published 2014).

This assay in a line: 4-MUL cellobiose tolerance/inhibition assay, dose-response IC50 (Example 2). Type of assay: biochemical. As to the method:
CBH I activity on was measured using the 4-MUL assay using gluconolactone to inhibit any BG activity. The fluorogenic 4-MUL substrate (SIGMA) was prepared at 100 mM concentration in DMSO. Assays were run in black 96-well-flat-bottomed plates (Costar) and 4-MU fluorescence was read on a BioTek H4 plate reader (ex/em 365/450 nm). Assay plates were filled with buffer (final concentrations of 100 mM MES, pH 6, 25 mM gluconolactone, with or without cellobiose; cellobiose concentrations are listed with appropriate data sets), to which enzyme mixture was added (10-30 μl, 5 μg/mL final) and then assays were initiated by addition of 4-MUL (0.5 mM final concentration in 100 μl total volume). Enzyme mixtures were either CBH I variants from harvested supernatants or standards. Standards included: a negative control, consisting of harvested supernatant from the CBH I knock-out strain; a positive control, consisting of wild-type CBH I from harvested supernatants; and, a commercial CBH I standard (E-CBHI from Megazymes). Activity standards were run by serial dilution of commercial CBH I from 40 to 0.02 μg/mL and 4-MU (SIGMA, prepared at 20 mM in DMSO) (in dilution increments of 2-fold; all dilutions were made using harvested supernatant from the knock-out control). Kinetic rates were monitored over the first 15 mins following 4-MUL addition; initial rates were calculated based on data in the linear range. After 1 hr, a final endpoint read was taken, both before and after reaction quenching (100 μL of 200 mM Sodium Carbonate, pH 10.0). Activity was calculated for kinetic and endpoint reads; background resulting from the CBH I knock-out supernatant remained negligible. 4MU standard curves and HPLC quantification values were used to calculate specific activity.
Tolerance/inhibition values represent activity ratios and/or percent activity remaining/percent activity decreased in the presence versus the absence of cellobiose. Tolerant variants show less inhibition in the presence of cellobiose as compared to wild type, where an activity ratio of 1 (with vs. without a given concentration of cellobiose) is equivalent to 0% inhibition by cellobiose, or 100% tolerance. The effect of cellobiose on CBH I variant performance was monitored by dose-response in the 4MUL assay. Dose-response curves were generated by assaying variant activity in the presence of 6-8 different cellobiose concentrations ranging up to 100 mM cellobiose. CBH I samples were diluted to 5 μg/mL final concentration or were used directly in the case of protein quantification levels below 5 μg/mL. Half maximal inhibitory concentration (IC50) values were determined by plotting 4MUL activity versus cellobiose concentration and fitting with a four parameter dose-response fitting algorithm, with zero activity (or 100% inhibition) constrained to background activity (as established by CBH I knockout values) and with automatic outlier elimination (on GraphPad Prism 5).
Harvested supernatants from active variant isolates were evaluated for cellobiose tolerance at 1 mM cellobiose in the 4-MUL activity assay. Table 8 lists the tolerance of variants at 1 mM. […] Additional cellobiose concentrations at 0.25, 5, 10, 50, and 100 mM were tested leading to full dose-response curves for which half maximal inhibitory concentration (IC50) values were generated (Table 8). The IC50 values support that the variant library has decreased product inhibition, or increased tolerance to cellobiose, when compared to the wild-type enzyme (WT IC50=0.03 mM; see first entry, Table 8).
In one example, the cellobiose tolerance of the library was explored in more detail by generating dose-response curves and determining half maximal inhibitory concentration (IC50) values, the point at which the enzyme is 50% inhibited.

Setting [1] is: Secondary screening, CBH I levels normalized to 5 μg/mL, cellobiose range 0.00085-100 mM, read-out: IC50.
[2] abbreviates: secondary screening, CBH I levels normalized to 5 μg/mL, cellobiose range 0.0001-100 mM, read-out: Average IC50.

Where two headings read alike, the source gives them in different places.

B1: R268R (protein, UniProt P62694 18-513, looked up)
Exoglucanase 1: QSACTLQSETHPPLTWQKCSSGGTCTQQTGSVVIDANWRWTHATNSSTNCYDGNTWSSTLCPDNETCAKNCCLDGAAYASTYGVTTSGNSLSIGFVTQSAQKNVGARLYLMASDTTYQEFTLLGNEFSFDVDVSQLPCGLNGALYFVSMDADGGVSKYPTNTAGAKYGTGYCDSQCPRDLKFINGQANVEGWEPSSNNANTGIGGHGSCCSEMDIWEANSISEALTPHPCTTVGQEICEGDGCGGTYSDNRYGGTCDPDGCDWNPYRLGNTSFYGPGSSFTLDTTKKLTVVTQFETSGAINRYYVQNGVTFQQPNAELGSYSGNELNDDYCTAEEAEFGGSSFSDKGGLTQFKKATSGGMVLVMSLWDDYYANMLWLDSTYPTNETSSTPGAVRGSCSTSSGVPAQVESQSPNAKVTFSNIKFGPIGSTGNPSGGNPPGGNRGTTTTRRPATTTGSSPGPTQSHYGQCGGIGYSGPTVCASGTTCQVLNPYYSQCL
For B1, the IC50 is, setting by setting: under setting [1], 52 µM; under setting [2], 46 µM.

B2: R411V (protein, UniProt P62694 18-513, looked up, variant R411V)
Exoglucanase 1: QSACTLQSETHPPLTWQKCSSGGTCTQQTGSVVIDANWRWTHATNSSTNCYDGNTWSSTLCPDNETCAKNCCLDGAAYASTYGVTTSGNSLSIGFVTQSAQKNVGARLYLMASDTTYQEFTLLGNEFSFDVDVSQLPCGLNGALYFVSMDADGGVSKYPTNTAGAKYGTGYCDSQCPRDLKFINGQANVEGWEPSSNNANTGIGGHGSCCSEMDIWEANSISEALTPHPCTTVGQEICEGDGCGGTYSDNRYGGTCDPDGCDWNPYRLGNTSFYGPGSSFTLDTTKKLTVVTQFETSGAINRYYVQNGVTFQQPNAELGSYSGNELNDDYCTAEEAEFGGSSFSDKGGLTQFKKATSGGMVLVMSLWDDYYANMLWLDSTYPTNETSSTPGAVVGSCSTSSGVPAQVESQSPNAKVTFSNIKFGPIGSTGNPSGGNPPGGNRGTTTTRRPATTTGSSPGPTQSHYGQCGGIGYSGPTVCASGTTCQVLNPYYSQCL
Consider B2, for which the IC50 by setting is: under setting [1], 2900 µM; under setting [2], 3190 µM.

B3: R411C (protein, UniProt P62694 18-513, looked up, variant R411C)
Exoglucanase 1: QSACTLQSETHPPLTWQKCSSGGTCTQQTGSVVIDANWRWTHATNSSTNCYDGNTWSSTLCPDNETCAKNCCLDGAAYASTYGVTTSGNSLSIGFVTQSAQKNVGARLYLMASDTTYQEFTLLGNEFSFDVDVSQLPCGLNGALYFVSMDADGGVSKYPTNTAGAKYGTGYCDSQCPRDLKFINGQANVEGWEPSSNNANTGIGGHGSCCSEMDIWEANSISEALTPHPCTTVGQEICEGDGCGGTYSDNRYGGTCDPDGCDWNPYRLGNTSFYGPGSSFTLDTTKKLTVVTQFETSGAINRYYVQNGVTFQQPNAELGSYSGNELNDDYCTAEEAEFGGSSFSDKGGLTQFKKATSGGMVLVMSLWDDYYANMLWLDSTYPTNETSSTPGAVCGSCSTSSGVPAQVESQSPNAKVTFSNIKFGPIGSTGNPSGGNPPGGNRGTTTTRRPATTTGSSPGPTQSHYGQCGGIGYSGPTVCASGTTCQVLNPYYSQCL
As for B3, the IC50 runs as follows: under setting [1], 1310 µM; under setting [2], 886 µM.

B4: R411N (protein, UniProt P62694 18-513, looked up, variant R411N)
Exoglucanase 1: QSACTLQSETHPPLTWQKCSSGGTCTQQTGSVVIDANWRWTHATNSSTNCYDGNTWSSTLCPDNETCAKNCCLDGAAYASTYGVTTSGNSLSIGFVTQSAQKNVGARLYLMASDTTYQEFTLLGNEFSFDVDVSQLPCGLNGALYFVSMDADGGVSKYPTNTAGAKYGTGYCDSQCPRDLKFINGQANVEGWEPSSNNANTGIGGHGSCCSEMDIWEANSISEALTPHPCTTVGQEICEGDGCGGTYSDNRYGGTCDPDGCDWNPYRLGNTSFYGPGSSFTLDTTKKLTVVTQFETSGAINRYYVQNGVTFQQPNAELGSYSGNELNDDYCTAEEAEFGGSSFSDKGGLTQFKKATSGGMVLVMSLWDDYYANMLWLDSTYPTNETSSTPGAVNGSCSTSSGVPAQVESQSPNAKVTFSNIKFGPIGSTGNPSGGNPPGGNRGTTTTRRPATTTGSSPGPTQSHYGQCGGIGYSGPTVCASGTTCQVLNPYYSQCL
With B4, the IC50 (Secondary screening, 30 μl harvested supernatant (CBH I levels lower than 5 μg/mL), cellobiose range 0.00085-100 mM, read-out: IC50) came out at 7900 µM and the IC50 under setting [2] was 6720 µM.

B5: R268C (protein, UniProt P62694 18-513, looked up, variant R268C)
Exoglucanase 1: QSACTLQSETHPPLTWQKCSSGGTCTQQTGSVVIDANWRWTHATNSSTNCYDGNTWSSTLCPDNETCAKNCCLDGAAYASTYGVTTSGNSLSIGFVTQSAQKNVGARLYLMASDTTYQEFTLLGNEFSFDVDVSQLPCGLNGALYFVSMDADGGVSKYPTNTAGAKYGTGYCDSQCPRDLKFINGQANVEGWEPSSNNANTGIGGHGSCCSEMDIWEANSISEALTPHPCTTVGQEICEGDGCGGTYSDNCYGGTCDPDGCDWNPYRLGNTSFYGPGSSFTLDTTKKLTVVTQFETSGAINRYYVQNGVTFQQPNAELGSYSGNELNDDYCTAEEAEFGGSSFSDKGGLTQFKKATSGGMVLVMSLWDDYYANMLWLDSTYPTNETSSTPGAVRGSCSTSSGVPAQVESQSPNAKVTFSNIKFGPIGSTGNPSGGNPPGGNRGTTTTRRPATTTGSSPGPTQSHYGQCGGIGYSGPTVCASGTTCQVLNPYYSQCL
Turning to B5, the IC50 runs as follows: under setting [1], 351 µM; under setting [2], 335 µM.

B6: R411F (protein, UniProt P62694 18-513, looked up, variant R411F)
Exoglucanase 1: QSACTLQSETHPPLTWQKCSSGGTCTQQTGSVVIDANWRWTHATNSSTNCYDGNTWSSTLCPDNETCAKNCCLDGAAYASTYGVTTSGNSLSIGFVTQSAQKNVGARLYLMASDTTYQEFTLLGNEFSFDVDVSQLPCGLNGALYFVSMDADGGVSKYPTNTAGAKYGTGYCDSQCPRDLKFINGQANVEGWEPSSNNANTGIGGHGSCCSEMDIWEANSISEALTPHPCTTVGQEICEGDGCGGTYSDNRYGGTCDPDGCDWNPYRLGNTSFYGPGSSFTLDTTKKLTVVTQFETSGAINRYYVQNGVTFQQPNAELGSYSGNELNDDYCTAEEAEFGGSSFSDKGGLTQFKKATSGGMVLVMSLWDDYYANMLWLDSTYPTNETSSTPGAVFGSCSTSSGVPAQVESQSPNAKVTFSNIKFGPIGSTGNPSGGNPPGGNRGTTTTRRPATTTGSSPGPTQSHYGQCGGIGYSGPTVCASGTTCQVLNPYYSQCL
Turning to B6, the IC50 under setting [1] was found to be 7580 µM and the IC50 under setting [2] stood at 5390 µM.

B7: R268H (protein, UniProt P62694 18-513, looked up, variant R268H)
Exoglucanase 1: QSACTLQSETHPPLTWQKCSSGGTCTQQTGSVVIDANWRWTHATNSSTNCYDGNTWSSTLCPDNETCAKNCCLDGAAYASTYGVTTSGNSLSIGFVTQSAQKNVGARLYLMASDTTYQEFTLLGNEFSFDVDVSQLPCGLNGALYFVSMDADGGVSKYPTNTAGAKYGTGYCDSQCPRDLKFINGQANVEGWEPSSNNANTGIGGHGSCCSEMDIWEANSISEALTPHPCTTVGQEICEGDGCGGTYSDNHYGGTCDPDGCDWNPYRLGNTSFYGPGSSFTLDTTKKLTVVTQFETSGAINRYYVQNGVTFQQPNAELGSYSGNELNDDYCTAEEAEFGGSSFSDKGGLTQFKKATSGGMVLVMSLWDDYYANMLWLDSTYPTNETSSTPGAVRGSCSTSSGVPAQVESQSPNAKVTFSNIKFGPIGSTGNPSGGNPPGGNRGTTTTRRPATTTGSSPGPTQSHYGQCGGIGYSGPTVCASGTTCQVLNPYYSQCL
Turning to B7, the IC50 under setting [1] stood at 283 µM and the IC50 under setting [2] came out at 209 µM.

B8: R268T (protein, UniProt P62694 18-513, looked up, variant R268T)
Exoglucanase 1: QSACTLQSETHPPLTWQKCSSGGTCTQQTGSVVIDANWRWTHATNSSTNCYDGNTWSSTLCPDNETCAKNCCLDGAAYASTYGVTTSGNSLSIGFVTQSAQKNVGARLYLMASDTTYQEFTLLGNEFSFDVDVSQLPCGLNGALYFVSMDADGGVSKYPTNTAGAKYGTGYCDSQCPRDLKFINGQANVEGWEPSSNNANTGIGGHGSCCSEMDIWEANSISEALTPHPCTTVGQEICEGDGCGGTYSDNTYGGTCDPDGCDWNPYRLGNTSFYGPGSSFTLDTTKKLTVVTQFETSGAINRYYVQNGVTFQQPNAELGSYSGNELNDDYCTAEEAEFGGSSFSDKGGLTQFKKATSGGMVLVMSLWDDYYANMLWLDSTYPTNETSSTPGAVRGSCSTSSGVPAQVESQSPNAKVTFSNIKFGPIGSTGNPSGGNPPGGNRGTTTTRRPATTTGSSPGPTQSHYGQCGGIGYSGPTVCASGTTCQVLNPYYSQCL
As for B8, the IC50 was found to be 349 µM under setting [1] and 360 µM under setting [2].

By IC50 is commonly meant the concentration at which inhibition is half-maximal.
